Laboratory results taken from patent US20120178908A1 (Novo Nordisk, published 2012).

Key:
[1] = molecular target: T1, TLT-1 receptor on the surface of activated human platelets (human, UniProt Q86YW5 16-311); assay: cell-based or functional assay
T1 sequence: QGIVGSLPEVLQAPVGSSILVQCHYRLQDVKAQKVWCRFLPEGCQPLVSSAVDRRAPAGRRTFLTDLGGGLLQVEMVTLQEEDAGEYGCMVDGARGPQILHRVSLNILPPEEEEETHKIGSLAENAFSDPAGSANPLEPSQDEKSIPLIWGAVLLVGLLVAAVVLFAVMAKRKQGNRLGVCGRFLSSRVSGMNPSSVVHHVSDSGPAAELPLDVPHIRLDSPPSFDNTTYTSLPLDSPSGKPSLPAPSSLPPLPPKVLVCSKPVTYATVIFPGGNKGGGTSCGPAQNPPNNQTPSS

[2] = molecular target: T2, TLT-1 18-188 relipidated in 20:80 PS:PC vesicles (human, UniProt Q86YW5 18-188); assay: cell-based or functional assay
T2 sequence: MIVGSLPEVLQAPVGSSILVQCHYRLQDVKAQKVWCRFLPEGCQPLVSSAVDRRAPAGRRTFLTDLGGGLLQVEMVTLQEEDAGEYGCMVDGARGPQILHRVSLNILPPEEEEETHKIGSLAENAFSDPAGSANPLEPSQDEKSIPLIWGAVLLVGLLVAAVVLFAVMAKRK

B1: Fab 0023-LC-L3-TF;VH-CH1-HPC4 (other)
light chain-linker-TF: DIVVSQSPSSLAVSAGEKVTMSCKSSQSLLNSRTRKNYLAWYQQKPGQSPKLLIYWASTRESGVPDRFTGSGSGTDFTLTISSVQAEDLAVYYCKQSYNLLTFGAGTKLELKRTVAAPSVFIFPPSDEQLKSGTASVVCLLNNFYPREAKVQWKVDNALQSGNSQESVTEQDSKDSTYSLSSTLTLSKADYEKHKVYACEVTHQGLSSPVTKSFNRGECGSGGGGSGGGGSSGTTNTVAAYNLTWKSTNFKTILEWEPKPVNQVYTVQISTKSGDWKSKCFYTTDTECDLTDEIVKDVKQTYLARVFSYPAGNVESTGSAGEPLYENSPEFTPYLETNLGQPTIQSFEQVGTKVNVTVEDERTLVRRNNTFLSLRDVFGKDLIYTLYYWKSSSSGKKTAKTNTNEFLIDVDKGENYCFSVQAVIPSRTVNRKSTDSPVECMGQEKGEFRE
VH-CH1-HPC4: EVRLVESGGGLVQPGGSLKLSCATSGFTFSDYFMYWIRQTPEKRLEWVAYISNGGDSSSYPDTVKGRFTISRDNAKNTLYLQMSRLKSEDTAMYYCATNKNWDDYYDMDYWGQGTSVTVSSASTKGPSVFPLAPCSRSTSESTAALGCLVKDYFPEPVTVSWNSGALTSGVHTFPAVLQSSGLYSLSSVVTVPSSSLGTKTYTCNVDHKPSNTKVDKRVESKEDQVDPRLIDGK
FVII-mediated FXa generation % Activity activated plts (n 1) [1]: 20%
FVIIa-mediated FXa generation % Activity activated plts (n 1) [1]: 43%
FVII-mediated FXa generation % Activity lipidated TLT-1 [2]: 26%
FVIIa-mediated FXa generation % Activity lipidated TLT-1 [2]: 42%

B2: Fab 0023-LC-L4a-TF;VH-CH1-HPC4 (other)
light chain-linker-TF: DIVVSQSPSSLAVSAGEKVTMSCKSSQSLLNSRTRKNYLAWYQQKPGQSPKLLIYWASTRESGVPDRFTGSGSGTDFTLTISSVQAEDLAVYYCKQSYNLLTFGAGTKLELKRTVAAPSVFIFPPSDEQLKSGTASVVCLLNNFYPREAKVQWKVDNALQSGNSQESVTEQDSKDSTYSLSSTLTLSKADYEKHKVYACEVTHQGLSSPVTKSFNRGECGSGGGGSGGGGSGGGGSSGTTNTVAAYNLTWKSTNFKTILEWEPKPVNQVYTVQISTKSGDWKSKCFYTTDTECDLTDEIVKDVKQTYLARVFSYPAGNVESTGSAGEPLYENSPEFTPYLETNLGQPTIQSFEQVGTKVNVTVEDERTLVRRNNTFLSLRDVFGKDLIYTLYYWKSSSSGKKTAKTNTNEFLIDVDKGENYCFSVQAVIPSRTVNRKSTDSPVECMGQEKGEFRE
VH-CH1-HPC4: EVRLVESGGGLVQPGGSLKLSCATSGFTFSDYFMYWIRQTPEKRLEWVAYISNGGDSSSYPDTVKGRFTISRDNAKNTLYLQMSRLKSEDTAMYYCATNKNWDDYYDMDYWGQGTSVTVSSASTKGPSVFPLAPCSRSTSESTAALGCLVKDYFPEPVTVSWNSGALTSGVHTFPAVLQSSGLYSLSSVVTVPSSSLGTKTYTCNVDHKPSNTKVDKRVESKEDQVDPRLIDGK
FVII-mediated FXa generation % Activity activated plts (n 1) [1]: 21%
FVIIa-mediated FXa generation % Activity activated plts (n 1) [1]: 21%
FVII-mediated FXa generation % Activity lipidated TLT-1 [2]: 24%
FVIIa-mediated FXa generation % Activity lipidated TLT-1 [2]: 40%

B3: Fab 0012-LC-L0-hTF.1-219; VH-CH1-HPC4 (other)
light: DVVMTQTPLSLPVSLGDQASISCRSSQSLVHRNGNTYFHWCLQKPGQSPKLLIYKVSNRFSGVPDRFSGSGSGTDFTLKISRVEAEDLGVYFCSQSTHVPYTFGGGTKLEIKRTVAAPSVFIFPPSDEQLKSGTASVVCLLNNFYPREAKVQWKVDNALQSGNSQESVTEQDSKDSTYSLSSTLTLSKADYEKHKVYACEVTHQGLSSPVTKSFNRGECSGTTNTVAAYNLTWKSTNFKTILEWEPKPVNQVYTVQISTKSGDWKSKCFYTTDTECDLTDEIVKDVKQTYLARVFSYPAGNVESTGSAGEPLYENSPEFTPYLETNLGQPTIQSFEQVGTKVNVTVEDERTLVRRNNTFLSLRDVFGKDLIYTLYYWKSSSSGKKTAKTNTNEFLIDVDKGENYCFSVQAVIPSRTVNRKSTDSPVECMGQEKGEFRE
heavy: EVKLLESGGGLVQPGGSLKLSCAASGFDFSRYWMTWVRQAPGKGLEWIGEINPDSSTINYTPSLKDKFIISRDNAKNTLYLQMSEVRSEDTALYYCASGVFTSWGQGTLVTVSAASTKGPSVFPLAPCSRSTSESTAALGCLVKDYFPEPVTVSWNSGALTSGVHTFPAVLQSSGLYSLSSVVTVPSSSLGTKTYTCNVDHKPSNTKVDKRVESKEDQVDPRLIDGK
FVIIa-mediated FXa generation % Activity activated plts (n 1) [1]: 132%
FVII-mediated FXa generation % Activity lipidated TLT-1 [2]: 90%
FVIIa-mediated FXa generation % Activity lipidated TLT-1 [2]: 98%

B4: Fab 0051-LC-L4a-TF;VH-CH1-HPC4 (other)
light chain-linker-TF: SIVMTQTPKFLLVSAGDRVTITCKASQSVSNDVAWYQQKPGQSPKLLINYASSRYTGIPDRFTGSGYGTDFTFTISTVQAEDLAVYFCQQDYSSPYTFGGGTKLEIERTVAAPSVFIFPPSDEQLKSGTASVVCLLNNFYPREAKVQWKVDNALQSGNSQESVTEQDSKDSTYSLSSTLTLSKADYEKHKVYACEVTHQGLSSPVTKSFNRGECGSGGGGSGGGGSGGGGSSGTTNTVAAYNLTWKSTNFKTILEWEPKPVNQVYTVQISTKSGDWKSKCFYTTDTECDLTDEIVKDVKQTYLARVFSYPAGNVESTGSAGEPLYENSPEFTPYLETNLGQPTIQSFEQVGTKVNVTVEDERTLVRRNNTFLSLRDVFGKDLIYTLYYWKSSSSGKKTAKTNTNEFLIDVDKGENYCFSVQAVIPSRTVNRKSTDSPVECMGQEKGEFRE
VH-CH1-HPC4: QVQLEQSGAELVRPGVSVKISCKGSGYTFTDYSMHWVKQSHAKSLEWIGVISTYYGDVRYNQKFKGKATMTVDKSSSTAYMALARLTSEDSAIYYCARAPMITTGAWFAYWGQGTLVTVSAASTKGPSVFPLAPCSRSTSESTAALGCLVKDYFPEPVTVSWNSGALTSGVHTFPAVLQSSGLYSLSSVVTVPSSSLGTKTYTCNVDHKPSNTKVDKRVESKEDQVDPRLIDGK
FVII-mediated FXa generation % Activity lipidated TLT-1 [2]: 22%
FVIIa-mediated FXa generation % Activity lipidated TLT-1 [2]: 43%

B5: Fab 0012-VH-CH1-L4a-hTF.1-219; LC-HPC4 (other)
heavy: EVKLLESGGGLVQPGGSLKLSCAASGFDFSRYWMTWVRQAPGKGLEWIGEINPDSSTINYTPSLKDKFIISRDNAKNTLYLQMSEVRSEDTALYYCASGVFTSWGQGTLVTVSAASTKGPSVFPLAPCSRSTSESTAALGCLVKDYFPEPVTVSWNSGALTSGVHTFPAVLQSSGLYSLSSVVTVPSSSLGTKTYTCNVDHKPSNTKVDKRVESKGSGGGGSGGGGSGGGGSSGTTNTVAAYNLTWKSTNFKTILEWEPKPVNQVYTVQISTKSGDWKSKCFYTTDTECDLTDEIVKDVKQTYLARVFSYPAGNVESTGSAGEPLYENSPEFTPYLETNLGQPTIQSFEQVGTKVNVTVEDERTLVRRNNTFLSLRDVFGKDLIYTLYYWKSSSSGKKTAKTNTNEFLIDVDKGENYCFSVQAVIPSRTVNRKSTDSPVECMGQEKGEFRE
light: DVVMTQTPLSLPVSLGDQASISCRSSQSLVHRNGNTYFHWCLQKPGQSPKLLIYKVSNRFSGVPDRFSGSGSGTDFTLKISRVEAEDLGVYFCSQSTHVPYTFGGGTKLEIKRTVAAPSVFIFPPSDEQLKSGTASVVCLLNNFYPREAKVQWKVDNALQSGNSQESVTEQDSKDSTYSLSSTLTLSKADYEKHKVYACEVTHQGLSSPVTKSFNRGECEDQVDPRLIDGK
FVII-mediated FXa generation % Activity lipidated TLT-1 [2]: 60%
FVIIa-mediated FXa generation % Activity lipidated TLT-1 [2]: 72%

B6: Fab 0082-VH-CH1-L10-TF;LC-HPC4 (other)
VH-CH1-linker-TF: EVKLLESGGGLVQPGGSLKLSCAASGFDFSRYWMTWVRQAPGKGLEWIGEINPDSSTINYAPSLKDKFIISRDNAKNTLYLQMSEVRSEDTALYYCASGVFTSWGQGTLVTVSAASTKGPSVFPLAPCSRSTSESTAALGCLVKDYFPEPVTVSWNSGALTSGVHTFPAVLQSSGLYSLSSVVTVPSSSLGTKTYTCNVDHKPSNTKVDKRVESKYGPPSPSSPAPEFLGGSGTTNTVAAYNLTWKSTNFKTILEWEPKPVNQVYTVQISTKSGDWKSKCFYTTDTECDLTDEIVKDVKQTYLARVFSYPAGNVESTGSAGEPLYENSPEFTPYLETNLGQPTIQSFEQVGTKVNVTVEDERTLVRRNNTFLSLRDVFGKDLIYTLYYWKSSSSGKKTAKTNTNEFLIDVDKGENYCFSVQAVIPSRTVNRKSTDSPVECMGQEKGEFRE
light chain-HPC4: DVVMTQTPLSLPVSLGDQASISCRSSQSLVHRNGNTYFHWALQKPGQSPKLLIYKVSNRFSGVPDRFSGSGSGTDFTLKISRVEAEDLGVYFCSQSTHVPYTFGGGTKLEIKRTVAAPSVFIFPPSDEQLKSGTASVVCLLNNFYPREAKVQWKVDNALQSGNSQESVTEQDSKDSTYSLSSTLTLSKADYEKHKVYACEVTHQGLSSPVTKSFNRGECEDQVDPRLIDGK
FVII-mediated FXa generation % Activity activated plts (n 1) [1]: 40%
FVIIa-mediated FXa generation % Activity activated plts (n 1) [1]: 57%
FVII-mediated FXa generation % Activity lipidated TLT-1 [2]: 103%
FVIIa-mediated FXa generation % Activity lipidated TLT-1 [2]: 103%

B7: Fab 0061-VH-CH1-L10-TF;LC-HPC4 (other)
VH-CH1-linker-TF: EVKLLESGGGLVQPGGSLKLSCAASGFDFSRYWMTWVRQAPGKGLEWIGEINPDSSTINYNPSLKDKFIISRDNAKNTLYLQMSEVRSEDTALYYCASGVFTSWGQGTLVTVSAASTKGPSVFPLAPCSRSTSESTAALGCLVKDYFPEPVTVSWNSGALTSGVHTFPAVLQSSGLYSLSSVVTVPSSSLGTKTYTCNVDHKPSNTKVDKRVESKYGPPSPSSPAPEFLGGSGTTNTVAAYNLTWKSTNFKTILEWEPKPVNQVYTVQISTKSGDWKSKCFYTTDTECDLTDEIVKDVKQTYLARVFSYPAGNVESTGSAGEPLYENSPEFTPYLETNLGQPTIQSFEQVGTKVNVTVEDERTLVRRNNTFLSLRDVFGKDLIYTLYYWKSSSSGKKTAKTNTNEFLIDVDKGENYCFSVQAVIPSRTVNRKSTDSPVECMGQEKGEFRE
light chain-HPC4: DVVMTQTPLSLPVSLGDQASISCRSSQSLVHRNGNTYFHWALQKPGQSPKLLIYKVSNRFSGVPDRFSGSGSGTDFTLKISRVEAEDLGVYFCSQSTHVPYTFGGGTKLEIKRTVAAPSVFIFPPSDEQLKSGTASVVCLLNNFYPREAKVQWKVDNALQSGNSQESVTEQDSKDSTYSLSSTLTLSKADYEKHKVYACEVTHQGLSSPVTKSFNRGECEDQVDPRLIDGK
FVII-mediated FXa generation % Activity activated plts (n 1) [1]: 39%
FVIIa-mediated FXa generation % Activity activated plts (n 1) [1]: 62%
FVII-mediated FXa generation % Activity lipidated TLT-1 [2]: 101%
FVIIa-mediated FXa generation % Activity lipidated TLT-1 [2]: 101%
